Test results: publication PMC2932750 (Biochemistry, 2010)
Where no end group is shown, it is not given here.

Each binder was assayed against T1, EphA2 ligand-binding domain fused to human Fc (EphA2 Fc) (UniProt P29317 24-537) (assay: ELISA).
T1 sequence (P29317 24-537): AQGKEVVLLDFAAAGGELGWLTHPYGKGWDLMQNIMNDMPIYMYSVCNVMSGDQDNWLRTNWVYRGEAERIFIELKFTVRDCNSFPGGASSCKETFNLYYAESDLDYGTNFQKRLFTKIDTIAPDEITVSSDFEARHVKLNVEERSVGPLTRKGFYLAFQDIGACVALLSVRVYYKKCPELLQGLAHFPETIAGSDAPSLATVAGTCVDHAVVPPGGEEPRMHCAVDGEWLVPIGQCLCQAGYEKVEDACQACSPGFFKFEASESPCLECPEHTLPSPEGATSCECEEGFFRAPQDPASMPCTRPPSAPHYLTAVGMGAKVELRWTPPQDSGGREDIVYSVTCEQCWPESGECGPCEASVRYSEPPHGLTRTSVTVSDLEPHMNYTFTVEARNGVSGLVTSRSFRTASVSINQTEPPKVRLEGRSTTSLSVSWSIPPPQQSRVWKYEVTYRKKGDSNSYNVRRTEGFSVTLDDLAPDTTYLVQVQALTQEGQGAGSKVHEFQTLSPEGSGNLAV

Row | IC50 | Binder
1 | > 100 µM | YSAAPDSVPMMS (C-terminal amide if made in house) [Ala-4 peptide (YSA-12mer with alanine at position 4)]

Target: T1, EphA2 ligand-binding domain fused to …
Test: ELISA
Remark: another data set of the same source

Row | IC50 | Binder
2 | 1.8 µM | YSAYPDSVPC (also: homodimer, disulfide between C-terminal cysteines of the two chains) [dimerized YSA-C-10mer]
3 | 3.7 µM | SWLAYPDSVPC (free C-terminal cysteine thiol; C-terminal amide if made in house) [SWLA-C-11mer]
4 | 6.5 µM | SWLAYPDSVPMMS (C-terminal amide if made in house) [SWLA-13mer]
5 | 47 µM | YSAFPDSVPMMS (C-terminal amide if made in house) [YSAF-12mer]
6 | > 100 µM | YSSYPDSVPMMS (C-terminal amide if made in house) [YSS-12mer]
7 | 39 µM | SWLAYPDSVP (C-terminal amide if made in house) [SWLA-10mer]
8 | 5.2 µM | YSAYPDSVPC (free C-terminal cysteine thiol; C-terminal amide if made in house) [YSA-C-10mer (monomeric)]
